According to the supplement of paper PMC7125110:
± gives the standard error. This sample holds only a part of the variants without activity.

B1: glmS ribozyme (parent)
chain: AUAAAAGCGCCAGAACUACAGAAAUGUAGUUGACGAGGAGGAGGUUUAUCGAAUUUUCGGCGGAUGCCUCCAAA

Tests used:
Conditions in all cases: with glucosamine-6-phosphate
glucosamine-6-phosphate [1] = variants of: B1; assay: self-cleavage kobs at 640 uM GlcN6P; higher = faster cleavage; RNA array
Summary of the method: (§1)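 Sequenced MiSeq chips were the platform: E. coli RNA polymerase transcribed barcoded ribozyme variants on them in situ, and a hybridised Cy3 probe tracked these at 37 °C. After glucosamine-6-phosphate (40 μM to 10 mM) in HEPES/KCl/Mg(OAc)2 buffer was flowed in, tiles were imaged over ~14 h. Signals normalised to baseline and to non-cleaving reference variants were reduced to per-tile medians and fit to one- or two-exponential decays to obtain kobs. kcat and KM were derived through weighted Michaelis–Menten fits across concentrations.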

glucosamine-6-phosphate [2] = variants of: B1; assay: self-cleavage kobs at 2500 uM GlcN6P; higher = faster cleavage; RNA array
Summary of the method: as §1

glucosamine-6-phosphate [3] = variants of: B1; assay: self-cleavage kobs at 10000 uM GlcN6P; higher = faster cleavage; RNA array
Summary of the method: as §1

Variant	self-cleavage kobs at 640 uM GlcN6P (glucosamine-6-phosphate [1]) [s⁻¹]	self-cleavage kobs at 2500 uM GlcN6P (glucosamine-6-phosphate [2]) [s⁻¹]	self-cleavage kobs at 10000 uM GlcN6P (glucosamine-6-phosphate [3]) [s⁻¹]
AUAAAAGCGCCAGAACUACAGAAAUGUAGUUGACCAGGAAGAUGUUUAUCGAAUUUUCGGCGGAUGCCUCCAAA [G35C G40A G43U]	< 1e-05	< 1e-05	
AUAAAAGCGCCAGAACUACAGAAAUGUAGUUGACGGGGAUGAGGUUUAUCGUAUUUUCGGCGGACGCCUCCAAA [A36G G40U A52U U65C]	< 1e-05		
AUAAAAGCGCCAGAACUACAGAAAUGUAGUUGACGGGGAGGAGGAUUACCGAAUUUUCGGCGGAUGCCUCCAAA [A36G U45A U49C]	< 1e-05	< 1e-05	
AUAAAAGCGCCAGAACUACAGAAAUGUAGUUGACCAGGAGGAUGUUUAUCGAAUUUUCGCCGGAUGCCUCCAAA [G35C G43U G60C]	< 1e-05		< 1e-05
AUAAAAGCGCCAGAACUACAGAAAUGUAGUUGACAAGGAGGAGGUUUAUCGAAUGUUCGGCGAGUGCCUCCAAA [G35A U55G G63A A64G]	< 1e-05		
AUAAAAGCGCCAGAACUACAGAAAUGUAGUUGACUAGGGGGAAGUUUAUCGAAUUUUCGGCGGAUGCCUCCAAA [G35U A39G G43A]	< 1e-05	< 1e-05	
AUAAAAGCGCCAGAACUACAGAAAUGUAGUUGACGCGGAGGUGGUUUAUCGGAUUUUCGGCGGAUGCCUUCAAA [A36C A42U A52G C70U]	< 1e-05		
AUAAAAGCGCCAGAACUACAGAAAUGUAGUUGACGGGGAGAAGGUUUAUCGAAUUUUCGGGGGAUGCCUCUAAA [A36G G41A C61G C71U]	< 1e-05	< 1e-05	
AUAAAAGCGCCAGAACUACAGAAAUGUAGUUGACUAGGAGGGGGUUUAUCGAAUAUUCGGCGGAUGCCUCCAAA [G35U A42G U55A]	< 1e-05		
AUAAAAGCGCCAGAACUACAGAAAUGUAGUUGACCAGGAGGAUGUUUAUCGUAUUUUCGGUGGAUGCCUCCAAA [G35C G43U A52U C61U]	< 1e-05	< 1e-05	
AUAAAAGCGCCAGAACUACAGAAAUGUAGUUGACGCGCAGGAUGUUUAUCGAAGUCUCGGCGGAUGCCUCCAAA [A36C G38C G43U U54G U56C]	< 1e-05		
AUAAAAGCGCCAGAACUACAGAAAUGUAGUUGACGGGGUGGAAGGUUAUCGAAUUUUCAGCGGAUGCCUCCAAA [A36G A39U G43A U45G G59A]	< 1e-05		
AUAAAAGCGCCAGAACUACAGAAAUGUAGUUGACGGGGAGCAGGUUUAUCGAAUUUUCGGCGGAUGCCUCCAAA [A36G G41C]	< 1e-05		< 1e-05
AUAAAAGCGCCAGAACUACAGAAAUGUAGUUGACUAGGAGGAGGUUUCUCGAAUUUUCGGCGGAUGCAUCCAAA [G35U A48C C68A]	< 1e-05		
AUAAAAGCGCCAGAACUACAGAAAUGUAGUUGACUAGGAGGAGUUUUAUCGAAUUUUCGGCGGAUGCAUCCAAA [G35U G44U C68A]	< 1e-05	< 1e-05	
AUAAAAGCGCCAGAACUACAGAAAUGUAGUUGACGGGGAGGAGGUUUAUCGAAUUUUCGGCGGAUUCCUCCAAA [A36G G66U]	< 1e-05	< 1e-05	< 1e-05
AUAAAAGCGCCAGAACUACAGAAAUGUAGUUGACGCGGCGGAGGUUUAUCGUAUUUUCGGCGGAUGCCUCCAAA [A36C A39C A52U]	< 1e-05		
AUAAAAGCGCCAGAACUACAGAAAUGUAGUUGACAAGGAGGAGGUUAAUGGAAGUUUCGGCGGAUGCCUCCAAA [G35A U47A C50G U54G]	0.000171 ± 6.3e-05	0.000152 ± 4.7e-05	
AUAAAAGCGCCAGAACUACAGAAAUGUAGUUGACCAGGAGGAGCUUUAUCGAAUUUUCGGCGGAUGCCUCCAAA [G35C G44C]	< 1e-05		< 1e-05
AUAAAAGCGCCAGAACUACAGAAAUGUAGUUGACCUGGGGGAGGUUUAUCGAAUUUUCGGCGGAUGCCUCCAAA [G35C A36U A39G]	< 1e-05		
AUAAAAGCGCCAGAACUACAGAAAUGUAGUUGACUAGGUGGAGGGCUAUCGAAUUUUCGGCGGAUGCCUCCAAA [G35U A39U U45G U46C]	< 1e-05	< 1e-05	
AUAAAAGCGCCAGAACUACAGAAAUGUAGUUGACAAGGAGGAGGUUUAUCGAAUUUUCGGCGGACGCCCCCAAA [G35A U65C U69C]	< 1e-05		
AUAAAAGCGCCAGAACUACAGAAAUGUAGUUGACCCGGAAGAGGUUUAUCGAAUUUUCGGCCGGUGCCUUCAAA [G35C A36C G40A G62C A64G C70U]	< 1e-05	< 1e-05	
AUAAAAGCGCCAGAACUACAGAAAUGUAGUUGACUAGGAGGAGGUUUAUCGAAUUUUUGGCGGUUGCAUCCAAA [G35U C58U A64U C68A]	< 1e-05		

Variant	self-cleavage kobs at 640 uM GlcN6P (glucosamine-6-phosphate [1]) [s⁻¹]	self-cleavage kobs at 2500 uM GlcN6P (glucosamine-6-phosphate [2]) [s⁻¹]	self-cleavage kobs at 10000 uM GlcN6P (glucosamine-6-phosphate [3]) [s⁻¹]
AUAAAAGCGCCAGAACUACAGAAAUGUAGUUGACAAGGAGGAGGUGUGUCGAAUUUUCGGCGGAUGCAUCUAAA [G35A U46G A48G C68A C71U]	< 1e-05	< 1e-05	
AUAAAAGCGCCAGAACUACAGAAAUGUAGUUGACGCGGAGGAGGUUUAUCGAAUUUUCGCCGGAUGCCUCCAAA [A36C G60C]	< 1e-05		
AUAAAAGCGCCAGAACUACAGAAAUGUAGUUGACGCAGAGGAUGUUUAUCGAAUUUUCGGGGGAUGACUCCAAA [A36C G37A G43U C61G C67A]	< 1e-05	< 1e-05	
AUAAAAGCGCCAGAACUACAGAAAUGUAGUUGACGGGGAGGAGGUUUAUCGAAUUUUAUGCGGAUGCCUUCAAA [A36G C58A G59U C70U]	< 1e-05	< 1e-05	
AUAAAAGCGCCAGAACUACAGAAAUGUAGUUGACGCGGAGGAGGUUUAUCAAAUUUUCGGCGGAUGCCUCGAAA [A36C G51A C71G]	6.03e-05 ± 2.2e-05		
AUAAAAGCGCCAGAACUACAGAAAUGUAGUUGACGCAGAGGAGGUUUAUCGAAUUUUCGGCGGCUACCUCCAAA [A36C G37A A64C G66A]	< 1e-05		
AUAAAAGCGCCAGAACUACAGAAAUGUAGUUGACAAGGAGGAGAUUUAUCGAAUUUUCGGCGGAUGCCUCCAAA [G35A G44A]	< 1e-05	< 1e-05	< 1e-05
AUAAAAGCGCCAGAACUACAGAAAUGUAGUUGACGCGGCGGAGGUUUAUCGAGUUUUCGGCGGAUGCCUCCAAA [A36C A39C A53G]	< 1e-05	< 1e-05	
AUAAAAGCGCCAGAACUACAGAAAUGUAGUUGACCAGGAGGAGGUUUAUCGAAGUUUCGGCGGAUGCCUCCAAA [G35C U54G]	< 1e-05	< 1e-05	
AUAAAAGCGCCAGAACUACAGAAAUGUAGUUGACAAGGAGGAGGGUUAUCGAAUUUCCGGCGGAUGCCUCCAAA [G35A U45G U57C]	< 1e-05		
AUAAAAGCGCCAGAACUACAGAAAUGUAGUUGACCAGGAGGAGGUUUAACUAUUUUUCGGCGGAUGCCUCCAAA [G35C U49A G51U A53U]	< 1e-05	< 1e-05	
AUAAAAGCGCCAGAACUACAGAAAUGUAGUUGACUAGGAGGAGGUUUAUCGAAUUUUCGGCGGAUGACCCCAAA [G35U C67A U69C]	< 1e-05		
AUAAAAGCGCCAGAACUACAGAAAUGUAGUUGACGCGGAGAAGGGUUAUCGUAUUUUCGGCGGAUGCCUCCAAA [A36C G41A U45G A52U]	< 1e-05		
AUAAAAGCGCCAGAACUACAGAAAUGUAGUUGACGCGGAGGUGCUUUAUCGUAUUUUCGGCGGAUGCCUCCAAA [A36C A42U G44C A52U]	< 1e-05		
AUAAAAGCGCCAGAACUACAGAAAUGUAGUUGACGUGGGGGAGGUUUAUCGAAUUUUCGGCGGAUGCCUCCAAA [A36U A39G]	< 1e-05		
AUAAAAGCGCCAGAACUACAGAAAUGUAGUUGACUAGGAAGAGGUUUAUCGUAUUUUCGGCGGAUGCCUCCAAA [G35U G40A A52U]	< 1e-05	< 1e-05	
AUAAAAGCGCCAGAACUACAGAAAUGUAGUUGACCUGGAAGAGGUUUAUCGAAUUUUCGGCGGAUGCCUCCAAA [G35C A36U G40A]	< 1e-05	< 1e-05	
AUAAAAGCGCCAGAACUACAGAAAUGUAGUUGACUAGGAGGUGGUUUAUCGAAUUUUCGGCGCAUGCCUCCAAA [G35U A42U G63C]	< 1e-05		
AUAAAAGCGCCAGAACUACAGAAAUGUAGUUGACGCGGAGGAGGUUUAUCAAAUUUUCGGCGGAUGCCUGCAAA [A36C G51A C70G]	9.36e-05 ± 3.3e-05		
AUAAAAGCGCCAGAACUACAGAAAUGUAGUUGACGCGGAGGAGGUUUAUCUAAUUUUCGGCGGAUGCCUGCAAA [A36C G51U C70G]	0.000181 ± 5.1e-05	4.65e-05 ± 1.9e-05	
AUAAAAGCGCCAGAACUACAGAAAUGUAGUUGACCAGGAGAAGGUUUAACGAAUUUUGGGCGGAUGCCUCUAAA [G35C G41A U49A C58G C71U]	< 1e-05		
AUAAAAGCGCCAGAACUACAGAAAUGUAGUUGACGGGGAGGAGGUUAAUCGAAUUUUCGGCGGAUGCCUCCAAA [A36G U47A]	< 1e-05		
AUAAAAGCGCCAGAACUACAGAAAUGUAGUUGACUAGUAGGAGGUUUAUCGAAUUUUCGGCGGAUGACUCCAAA [G35U G38U C67A]	< 1e-05		
AUAAAAGCGCCAGAACUACAGAAAUGUAGUUGACGCGGAGGAGGUUUAGCGAAUUUUCGGCGAAUGCCUCCAAA [A36C U49G G63A]	< 1e-05	< 1e-05	
